Source: IntAct's records for PubMed 24895401

B1: Ras GTPase-activating-like protein IQG1 (Saccharomyces cerevisiae), Q12280 (parent)
chain: MTAYSGSPSKPGNNNSYLNRYVENLGTNVTPPLRPQSSSKINSSLNIASPSHLKTKTSASNSSATILSKKVESSVSKLKPSLPNKLVGKYTVDLSNYSKIELRYYEFLCRVSEVKIWIEAVIEEALPSEIELCVGDSLRNGVFLAKLTQRINPDLTTVIFPAGDKLQFKHTQNINAFFGLVEHVGVPDSFRFELQDLYNKKNIPQVFETLHILISMINKKWPGKTPALTNVSGQISFTKEEIAACKKAWPRIRDFKSLGTNINTAPASPEEPKEKRSGLIKDFNKFERPNIPVEEILITPRKNITDANCSDFSNTPSPYNEAPKMSNLDVVVEKRKFTPIEPSLLGPTPSLEYSPIKNKSLSYYSPTISKYLTYDTEFYTRRSRAREEDLNYYQTFKYSPSHYSPMRRERMTEEQFLEKVVQLQNICRGVNTRFNLYIQKRLLNLFEQDILRFQACLRGNKFRVLSSMYLPIRRAKIDVPHVEAIQSRIKGSRIRYKYDKLKFTLSRFSCTVELLQAYCRSKLLKTTVNTKLNDIEISHYPLTKLQSYMRASYVRKKVMSLNTKLNDERESIMKFSAIIRGNVVRCSEDAILSAVHDVHKENISKLQSLIRGIFTRSCLASIIYSLGKENCNIIQLSACIRGNAVRHKVQSLFAPENNLSETVHDLQGLVRGILVRYTLDLVDDIVEYNNLALFQAFSRGALVRESLDQKSSFYKRNVRSVIMIQSWIRKSLQRSAYLELLDCPNPSLWAVKKFVHLLNGTATIEEVQNQLESCQASLDSENMKKERLLKSIRQQLNINGVLDKFGLLKDKDHELGISDSTIPKSKYQKYEKLFYMLQVDPSYWKLLYLKEPEFVAKNVYMTFGTVNQRMNDRERSYFTRFVCEMLQNAINEAPSIESFLDNRSQFWQTILQDFLRRESPEFFSIIVPVLDYLSDPVVDFESDPYKIYQEIHGFSSPQHCSPVDDASTKNKFIDNLRCLWHAIEMVAEIYTRKVHTIPVEIRYLCTKIFCYAADKNIEEIDSLRAISSILVNVFVSEYLVNREYYGYKDSNVQKNNQKIDILMKSLATVFEIKNFDGFLDPLNQYANEIKPHIKDVLYNVLVDPEYEQEGDRLIYLDMVSPSPKLELLTEKVLEISGKFEEYLNEFPEADILHDILEKNLDNSSFPRSGRVTLELDASAYRFLVSDDKMRKIYDQVKRAFVYMMQIEDVDTNLYDLSISTILPQDEPNFANFLEQNPKIRDDPMIQKLKPLKYFTLKNVTLKKIHELESTGTFCSSDNKLQNFLNDIANTIKNPNYAIDYVTQEIYITKETLTKISEMNHSLDIELSRLKKHVDHTIKDFQKAKDFSPVHKSKFGNFKNAVKKVQGRERSELQGMKFKWNTKQLYERGVLKTIRGEKLAELTVKVFGSSGPKFPDIIFKISTSDGSRFGIQMIDKRKGPDKRYSDDVDSFSFKDLIKTQVEPKIETWKLFHSNVVVNNSQLLHLIVSFFYKRNAL
partner: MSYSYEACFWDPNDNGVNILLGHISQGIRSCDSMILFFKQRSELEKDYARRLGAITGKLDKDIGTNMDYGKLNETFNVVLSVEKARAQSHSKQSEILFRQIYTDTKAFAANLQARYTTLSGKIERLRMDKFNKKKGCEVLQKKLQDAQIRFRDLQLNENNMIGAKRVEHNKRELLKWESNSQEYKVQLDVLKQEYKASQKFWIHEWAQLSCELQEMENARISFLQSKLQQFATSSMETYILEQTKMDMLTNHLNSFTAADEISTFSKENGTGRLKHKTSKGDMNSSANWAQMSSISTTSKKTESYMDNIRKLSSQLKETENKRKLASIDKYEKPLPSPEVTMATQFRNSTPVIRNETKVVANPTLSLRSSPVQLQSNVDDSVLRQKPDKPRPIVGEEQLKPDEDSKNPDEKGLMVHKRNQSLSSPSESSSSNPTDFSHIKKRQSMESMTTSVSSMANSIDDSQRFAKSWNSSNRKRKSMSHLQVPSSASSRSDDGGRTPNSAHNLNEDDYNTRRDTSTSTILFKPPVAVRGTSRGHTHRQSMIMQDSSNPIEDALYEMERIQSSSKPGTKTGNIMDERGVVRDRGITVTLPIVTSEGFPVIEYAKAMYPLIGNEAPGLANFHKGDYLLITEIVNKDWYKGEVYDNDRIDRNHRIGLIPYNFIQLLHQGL

Variants of: B1
Settings: with cyk2_yeast HOF1, Q05080

| effect of a mutation on the interaction | Variant |
| --- | --- |
| disrupting interaction strength | Q667S |
| disrupting interaction strength | Q667S;Q695S |
| with no effect | Q725S |
| disrupting interaction strength | Q695S |
